PMC3324987 (Frontiers in Molecular Neuroscience, 2012)
Each block holds one molecule with its values, some of them ahead of it.

What was measured:
[1] = tested on: apo-CaBP1; experiment: ITC and HSQC of NSCaTE binding to apo-CaBP1; design: species or system human; conditions: ITC and NMR, compared to Ca^2+-CaBP1
[2] = target: C-lobe of calmodulin (residues 78-148) (UniProt P0DP23 79-149); experiment: other fluorescence titration
[3] = target: N-lobe of calmodulin (residues 1-77) (UniProt P0DP23 2-78); experiment: other fluorescence titration

- binding to apo-CaBP1 [1]: extremely weak
Molecule: long NSCaTE peptide: biosynthetically produced N-terminal region of Cav1.2 (residues 1–68), expressed in E. coli

- Ka [2]: 232000 M⁻¹
- Ka [3]: 1.39e+06 M⁻¹
B1: long NSCaTE peptide, Cav1.2 N-terminal cytoplasmic region residues 1-68 (domain or fragment)
chain: MVNENTRMYIPEENHQGSNYGSPRPAHANMNANAAAGLAPEHIPTPGAALSWQAAIDAARQAKLMGSA
